The numbers were not newly measured in publication PMC5801593, which cites them from elsewhere.

For the data set, the target named is IscS (Escherichia coli) (UniProt P0A6B7). The experiment in a line: fluorescence labeling and calorimetry.

pKd: −log10 of the molar value.

Sequence of IscS (Escherichia coli) (P0A6B7 whole entry): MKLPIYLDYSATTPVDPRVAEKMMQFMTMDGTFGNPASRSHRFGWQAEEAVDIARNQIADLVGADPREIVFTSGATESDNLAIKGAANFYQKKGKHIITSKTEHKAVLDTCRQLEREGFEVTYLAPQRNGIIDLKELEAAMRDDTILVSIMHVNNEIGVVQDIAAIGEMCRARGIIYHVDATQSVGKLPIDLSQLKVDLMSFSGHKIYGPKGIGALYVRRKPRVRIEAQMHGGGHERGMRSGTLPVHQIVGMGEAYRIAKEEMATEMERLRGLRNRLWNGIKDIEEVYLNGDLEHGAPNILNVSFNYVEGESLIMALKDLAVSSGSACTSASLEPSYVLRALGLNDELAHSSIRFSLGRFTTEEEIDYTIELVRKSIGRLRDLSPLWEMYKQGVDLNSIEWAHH
Sequence of CyaY (P27838 whole entry): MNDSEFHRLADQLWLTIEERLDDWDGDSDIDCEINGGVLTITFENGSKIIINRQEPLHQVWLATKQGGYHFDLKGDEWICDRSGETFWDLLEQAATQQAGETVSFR

CyaY (from UniProt P27838): the negative logarithm of the Kd (pKd) is 4.70.
As for IscX (from UniProt P0C0L9), the negative logarithm of the Kd (pKd) was 4.92.
